Key:
[1] = target: CpaF from C. crescentus (C. crescentus NA1000); test: cryo-EM structure; 5 mg/mL CpaF without nucleotide addition, in the presence of Mg2+, 8 mM CHAPSO; single particle, C2 symmetry
[2] = target: CpaF from C. crescentus (C. crescentus NA1000); test: cryo-EM structure; 5 mg/mL CpaF with 4 mM AMPPNP, 5 mM MgSO4 in total, 8 mM CHAPSO, 45 min at room temperature before vitrification; single particle, C2 symmetry
[3] = target: CpaF from C. crescentus (C. crescentus NA1000); test: cryo-EM structure; 5 mg/mL CpaF with 4 mM ADP, 5 mM MgSO4 in total, 8 mM CHAPSO, 45 min at room temperature before vitrification; single particle, C2 symmetry

stoichiometry N [1]: 6 | stoichiometry N [2]: 6 | stoichiometry N [3]: 6
Substance: CpaF from C. crescentus (enzyme)

Source: PMC11300603
